For series [1], the system named is ZFN 48641 (mALB) (synthetic). The series can be described thus: cell_activity. The note with it: pair with 31523; mouse liver after third 2 mg/kg LNP dose.
Another series has as its system mouse albumin. The series can be described thus: Indel analysis (nuclease activity) in livers of mice injected intravenously with ZFN mRNA LNPs. It counts as in vivo. The note with it: 48641/31523 mRNA LNP (II-9), single dose 2 mg/kg; FIG. 4B. As to the method:
8-10 week old C57BL6 purchased from Charles River were injected intravenously through the tail vein with 200 uL of an aqueous solution containing diluted LNPs or a mixture of diluted LNPs and AAV donor encoding a human IDS or human FIX transgene containing homology arms flanking the ZFN cut site and a splice acceptor just upstream of the coding sequence of the transgene. Some animals were injected with 5 mg/kg dexamethasone intraperitoneally 30 minutes prior to LNP dosing. Animals were then sacrificed 7 days post LNP dosing or re-dosed with LNPs at either a 7 or 14 day interval before subsequent sacrifice and harvesting of liver tissue. Livers were snap frozen and a small portion of both the left and right lobes were dissected and harvested for gDNA using a FastPrep-24 Homogenizer (MP Biomedicals), Lysis Matrix D solution (MP Biomedicals), and a MasterPure DNA Purification kit (Epicentre).
Primers were designed to amplify approximately 200 bp of total genomic DNA sequence containing the ZFN cut site. Amplicons were then ran on either a Miseq or Nextseq (Illumina) and insertions and deletions (indels) from the wildtype genomic sequence were quantified.
To test the ability of targeted zinc finger nucleases to cleave a site in the mouse genome in vivo, mRNAs encoding albumin specific nucleases were incorporated into LNPs as described above using the cationic lipid I-6. […]

The subject of series [2] is ZFN 31523 (mALB) (synthetic). The series can be described thus: cell_activity. The note with it: pair with 48641; mouse liver after third 2 mg/kg LNP dose.

Take “CTGAAGGTGGCAATGGTTCCTCTCTGCT (double strand) [mouse ALB intron 1 left half-site]”: in series [1], the activity came to 25 % indels.
For `C[C@H]1C[C@@H]2[C@H]([C@@H](O)C[C@@]3(C)[C@H]2CC[C@]3(O)C(=O)COC(=O)CCC(=O)[O-])[C@@]2(C)C=CC(=O)C=C12.[Na+]` [Solumedrol®, methylprednisolone sodium succinate], in the series on mouse albumin, the “nuclease activity, dexamethasone pretreatment vs Solumedrol pretreatment plus 3 days” value is reported as “slightly more efficacious”.
“TTTCCTGTAACGATCGGGAACTGGCATC (double strand) [mouse ALB intron 1 right half-site]” showed an activity in series [2] of 25 % indels.

These data come from patent US20180185516A1, “DELIVERY OF TARGET SPECIFIC NUCLEASES” (Sangamo Therapeutics, Inc., priority 2016, published 2018).
